The text below walks through data of paper PMC12618784, “The ARVC-5-associated protein TMEM43 controls mitochondrial energy metabolism by stabilising ER-mitochondrial contact sites” (Cellular and Molecular Life Sciences: CMLS, 2025).

This experiment addresses T1, Dmel\Tmem43wt::TurboID (Drosophila, UniProt Q9VSB9 1-376).
T1 construct: Dmel\Tmem43 (CG8111), the Drosophila homologue of human TMEM43, wild type; Generated in this study; cloning details are available upon request; also called UAS-CG8111^WT-TurboID; source: transgenic Drosophila third-instar larvae, expressed in muscle with mef2-Gal4, in vivo and in lysate
T1 sequence (looked up): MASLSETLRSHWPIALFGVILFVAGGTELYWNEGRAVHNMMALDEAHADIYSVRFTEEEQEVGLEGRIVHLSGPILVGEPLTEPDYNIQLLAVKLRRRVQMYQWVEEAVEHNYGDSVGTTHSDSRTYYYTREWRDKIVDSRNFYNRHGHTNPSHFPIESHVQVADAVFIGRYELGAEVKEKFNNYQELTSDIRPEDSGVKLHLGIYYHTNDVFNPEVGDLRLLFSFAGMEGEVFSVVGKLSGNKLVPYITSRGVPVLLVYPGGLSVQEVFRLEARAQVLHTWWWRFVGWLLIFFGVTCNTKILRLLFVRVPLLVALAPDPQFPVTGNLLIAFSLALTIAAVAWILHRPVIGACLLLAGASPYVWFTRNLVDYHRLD
Nature of the experiment: proximity labelling; TurboID fusions expressed in muscle of third-instar larvae (mef2-Gal4); biotinylated proteins purified on streptavidin microbeads and identified by mass spectrometry. Conditions: partners not purified.

B1: Porin (natural protein, UniProt Q94920 1-282, looked up)
chain: MAPPSYSDLGKQARDIFSKGYNFGLWKLDLKTKTSSGIEFNTAGHSNQESGKVFGSLETKYKVKDYGLTLTEKWNTDNTLFTEVAVQDQLLEGLKLSLEGNFAPQSGNKNGKFKVAYGHENVKADSDVNIDLKGPLINASAVLGYQGWLAGYQTAFDTQQSKLTTNNFALGYTTKDFVLHTAVNDGQEFSGSIFQRTSDKLDVGVQLSWASGTSNTKFAIGAKYQLDDDASVRAKVNNASQVGLGYQQKLRDGVTLTLSTLVDGKNFNAGGHKIGVGLELEA
notes: Porin, the fly homologue of the vertebrate voltage-dependent anion channels (VDACs), outer mitochondrial membrane; also called Porin/VDAC; fly homologue of the vertebrate voltage-dependent anion channels; source: endogenous, Drosophila third-instar larval extract
As for B1, the “fold stronger interaction than the p.S333L mutant (relative amounts of biotinylated protein)” value was roughly 8 fold.
